# Test results from article PMC11246403.
# How the values were obtained:
# rabbit VEGF (rabbit) = assay: ELISA
# rabbit C3b (rabbit) = rabbit C3b (rabbit) (UniProt P12247); assay: ELISA
# [1] = target: cynomolgus C3b (cynomolgus monkey); assay: ELISA
# human C3b (human) = human C3b (human) (UniProt P01024); assay: ELISA
# C3 = C3 (UniProt P01024); assay: ELISA
# Human VEGF165 (human) = assay: ELISA
# [2] = target: cynomolgus VEGF (cynomolgus monkey); assay: ELISA
# rat VEGF (rat) = rat VEGF (rat) (UniProt P16612); assay: ELISA
# rat C3b (rat) = rat C3b (rat) (UniProt P01026); assay: ELISA
# KNP-301 = KNP-301 (UniProt Q9Y279); assay: SPR
# Chain of UniProt P01026 (P01026 25-1663): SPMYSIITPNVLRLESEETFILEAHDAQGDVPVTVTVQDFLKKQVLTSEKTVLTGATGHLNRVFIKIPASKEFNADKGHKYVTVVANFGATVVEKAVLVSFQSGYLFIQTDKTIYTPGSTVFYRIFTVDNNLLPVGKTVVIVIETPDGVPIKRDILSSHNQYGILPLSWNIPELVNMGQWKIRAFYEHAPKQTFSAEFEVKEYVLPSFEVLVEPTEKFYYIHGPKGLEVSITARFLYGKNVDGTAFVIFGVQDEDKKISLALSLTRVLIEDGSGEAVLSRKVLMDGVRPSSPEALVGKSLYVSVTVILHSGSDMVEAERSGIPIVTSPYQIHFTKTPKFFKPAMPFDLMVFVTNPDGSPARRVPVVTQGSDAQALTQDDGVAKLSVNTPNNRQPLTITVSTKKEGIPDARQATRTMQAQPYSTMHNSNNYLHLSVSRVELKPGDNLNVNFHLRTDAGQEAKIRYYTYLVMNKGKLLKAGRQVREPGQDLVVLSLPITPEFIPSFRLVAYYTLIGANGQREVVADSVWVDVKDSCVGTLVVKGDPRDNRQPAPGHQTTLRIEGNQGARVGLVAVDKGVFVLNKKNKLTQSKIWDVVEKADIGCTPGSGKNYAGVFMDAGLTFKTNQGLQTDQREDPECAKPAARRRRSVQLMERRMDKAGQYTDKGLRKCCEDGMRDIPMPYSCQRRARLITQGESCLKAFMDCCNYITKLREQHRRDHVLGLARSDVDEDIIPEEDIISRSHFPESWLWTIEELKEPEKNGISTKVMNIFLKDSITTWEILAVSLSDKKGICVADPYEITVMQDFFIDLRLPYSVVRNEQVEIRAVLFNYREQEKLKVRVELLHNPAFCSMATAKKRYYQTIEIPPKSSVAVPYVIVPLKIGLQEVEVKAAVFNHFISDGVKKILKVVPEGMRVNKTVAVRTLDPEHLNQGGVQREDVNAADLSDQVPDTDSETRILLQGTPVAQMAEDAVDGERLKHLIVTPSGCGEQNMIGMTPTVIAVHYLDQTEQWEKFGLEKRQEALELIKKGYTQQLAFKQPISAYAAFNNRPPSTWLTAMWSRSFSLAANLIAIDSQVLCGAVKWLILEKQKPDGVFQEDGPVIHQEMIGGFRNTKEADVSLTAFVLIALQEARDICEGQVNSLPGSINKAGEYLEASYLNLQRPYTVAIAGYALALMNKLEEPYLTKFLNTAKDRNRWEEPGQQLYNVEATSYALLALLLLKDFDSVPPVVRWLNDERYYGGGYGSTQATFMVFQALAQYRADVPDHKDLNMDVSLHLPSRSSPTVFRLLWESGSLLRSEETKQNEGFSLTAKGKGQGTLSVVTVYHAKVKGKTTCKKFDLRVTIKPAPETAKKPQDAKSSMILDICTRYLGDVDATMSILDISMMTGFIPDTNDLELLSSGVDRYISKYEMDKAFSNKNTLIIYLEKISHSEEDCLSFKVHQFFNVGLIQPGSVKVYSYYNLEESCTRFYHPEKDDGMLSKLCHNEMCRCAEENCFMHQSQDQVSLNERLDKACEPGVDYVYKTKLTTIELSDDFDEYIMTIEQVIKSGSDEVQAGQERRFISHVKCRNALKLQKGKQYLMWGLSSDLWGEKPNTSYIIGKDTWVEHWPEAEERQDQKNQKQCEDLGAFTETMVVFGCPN
# Chain of UniProt P12247 (P12247 whole entry, chain 1 of 2): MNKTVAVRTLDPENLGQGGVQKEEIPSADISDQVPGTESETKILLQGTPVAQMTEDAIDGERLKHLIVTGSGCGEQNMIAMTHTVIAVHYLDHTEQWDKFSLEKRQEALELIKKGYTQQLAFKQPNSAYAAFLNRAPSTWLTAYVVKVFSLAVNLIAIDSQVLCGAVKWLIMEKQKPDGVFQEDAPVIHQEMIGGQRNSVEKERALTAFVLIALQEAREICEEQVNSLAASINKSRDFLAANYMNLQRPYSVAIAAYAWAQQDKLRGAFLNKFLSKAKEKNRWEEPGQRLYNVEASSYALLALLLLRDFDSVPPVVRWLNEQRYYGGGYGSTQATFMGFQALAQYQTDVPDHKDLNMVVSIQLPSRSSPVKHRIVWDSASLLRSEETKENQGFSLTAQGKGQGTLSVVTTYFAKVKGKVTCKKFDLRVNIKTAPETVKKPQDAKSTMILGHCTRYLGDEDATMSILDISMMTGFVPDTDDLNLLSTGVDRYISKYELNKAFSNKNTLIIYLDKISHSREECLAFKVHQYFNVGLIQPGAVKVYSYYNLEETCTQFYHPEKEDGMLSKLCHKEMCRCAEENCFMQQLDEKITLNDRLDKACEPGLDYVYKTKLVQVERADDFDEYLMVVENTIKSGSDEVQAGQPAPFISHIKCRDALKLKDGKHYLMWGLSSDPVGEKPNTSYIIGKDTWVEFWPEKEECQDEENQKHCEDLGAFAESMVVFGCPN
# Chain of UniProt P12247 (P12247 whole entry, chain 2 of 2): as the sequence (P12247 whole entry, chain 1 of 2) above
relative binding affinity (%) (rabbit VEGF (rabbit)),relative binding affinity (%) (rabbit C3b (rabbit)),relative binding affinity (%) [1],relative binding affinity (%) (human C3b (human)),fold lower binding affinity than to C3b (ratio of IC50 values) (C3),relative binding affinity (%) (Human VEGF165 (human)),relative binding affinity (%) [2],relative binding affinity (%) (rat VEGF (rat)),relative binding affinity (%) (rat C3b (rat)),Kd (KNP-301),Substance
165%,1.2%,78.3%,100%,10 fold,100%,75.8%,80.8%,6.3%,–,KNP-301 (from UniProt Q9Y279 20-283) (Fc fusion)
–,–,–,–,–,–,–,–,–,0.0628 nM,Human VEGF165 (ligand)
–,–,–,–,–,–,–,–,–,4.34 nM,human C3b (from UniProt P01024 23-667; P01024 749-1663) (natural protein)
